Data published in US7033832.

Target: chicken N-cadherin (expressed from pMiwcN vector on LN2 mouse L cell transfectants) (chicken) (UniProt P10288)
Assay: flow cytometry of LN2 cells stained with NCD2 and FITC secondary antibody

Sequence of UniProt P10288 (P10288 165-912): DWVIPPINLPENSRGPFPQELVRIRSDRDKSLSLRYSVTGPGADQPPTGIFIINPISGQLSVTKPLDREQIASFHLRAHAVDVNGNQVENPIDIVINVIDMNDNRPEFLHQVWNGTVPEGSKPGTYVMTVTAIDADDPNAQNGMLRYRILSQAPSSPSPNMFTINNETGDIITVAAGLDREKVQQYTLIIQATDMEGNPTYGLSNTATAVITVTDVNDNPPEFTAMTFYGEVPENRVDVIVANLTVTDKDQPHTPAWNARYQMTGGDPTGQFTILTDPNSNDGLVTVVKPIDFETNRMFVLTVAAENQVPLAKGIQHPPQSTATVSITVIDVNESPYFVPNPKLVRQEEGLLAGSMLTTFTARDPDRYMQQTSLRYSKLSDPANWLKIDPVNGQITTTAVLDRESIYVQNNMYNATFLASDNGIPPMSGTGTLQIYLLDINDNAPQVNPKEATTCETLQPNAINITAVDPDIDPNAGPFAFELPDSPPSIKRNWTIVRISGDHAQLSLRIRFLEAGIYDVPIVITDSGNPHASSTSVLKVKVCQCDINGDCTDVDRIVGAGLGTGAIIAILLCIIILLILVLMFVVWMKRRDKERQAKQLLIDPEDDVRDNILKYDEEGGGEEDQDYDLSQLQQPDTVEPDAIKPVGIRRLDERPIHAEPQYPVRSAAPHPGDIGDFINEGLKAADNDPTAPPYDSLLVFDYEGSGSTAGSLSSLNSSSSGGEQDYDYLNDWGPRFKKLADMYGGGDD

mean channel fluorescence (mcf): 26.5 mcf
Substance: anti-chicken-N-Cadherin antibody (NCD2, Zymed, San Francisco, Calif.)
